Measured values from patent US20250179192A1.

Biological target: KDR1-3 domains (UniProt P35968)
Assay: Octet BLI, KDR1-3 domains on biosensor, scFv in solution

Sequence of KDR1-3 domains (P35968 20-327 limits assumed): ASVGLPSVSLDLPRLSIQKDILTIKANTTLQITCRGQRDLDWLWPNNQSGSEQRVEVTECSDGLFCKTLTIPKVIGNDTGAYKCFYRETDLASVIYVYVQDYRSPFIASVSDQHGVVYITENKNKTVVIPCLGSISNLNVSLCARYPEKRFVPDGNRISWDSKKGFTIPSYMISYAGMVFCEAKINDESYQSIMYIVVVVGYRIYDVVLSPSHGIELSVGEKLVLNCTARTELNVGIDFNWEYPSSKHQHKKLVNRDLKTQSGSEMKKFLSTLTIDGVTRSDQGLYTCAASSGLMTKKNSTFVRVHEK

koff: 0.000266 s⁻¹
B1: 6A6 (scFv form, off-rate screening) (scFv, from another filing, V domains shown)
VH: QMQLVQSGAEVKKPGASVKLSCKASGYTFSSYWMHWVRQAPGQRLEWMGEINPGNGHTNYNEKFKSRVTITVDKSASTAYMELSSLRSEDTAVYYCAKIWGPSLTSPFDYWGQGTLVTVSS
VL: SNFMLTQPPSVSVSPGKTARITCRGDNLGDVNVHWYQQRPGQAPVLVMYYDADRPSGIPERFSGSNSGNTATLTISGVEAGDEADYYCQVWDRTSEYVFGTGTKVTVLG
